Source: doi:10.1101/2023.09.14.557733

Target: FgSte2-yellow fluorescent protein (F. graminearum)
Assay: FRET or BRET

## FgSte3-Nano luciferase (receptor)
  BRET50 (galactose concentration for donor induction): 2 % galactose
  mBRET: 110 mBRET
  netBRET: > 0.1 netBRET
